Data reported in patent publication US9279107B2, “Simplified basic media for human pluripotent cell culture” (WISCONSIN ALUMNI RESEARCH FOUNDATION, priority 2010, dated 2016).

B1: FGF6: FGF family member growth factor (protein, UniProt P10767 38-208, looked up)
Fibroblast growth factor 6: SPAGTRANNTLLDSRGWGTLLSRSRAGLAGEIAGVNWESGYLVGIKRQRRLYCNVGIGFHLQVLPDGRISGTHEENPYSLLEISTVERGVVSLFGVRSALFVAMNSKGRLYATPSFQEECKFRETLLPNNYNAYESDLYQGTYIALSKYGRVKRGSKVSPIMTVTHFLPRI
B2: FGF4: FGF family member growth factor (protein, UniProt P08620 31-206, looked up)
Fibroblast growth factor 4: APTAPNGTLEAELERRWESLVALSLARLPVAAQPKEAAVQSGAGDYLLGIKRLRRLYCNVGIGFHLQALPDGRIGGAHADTRDSLLELSPVERGVVSIFGVASRFFVAMSSKGKLYGSPFFTDECTFKEILLPNNYNAYESYKYPGMFIALSKNGKTKKGNRVSPTMKVTHFLPRL
B3: NODAL (protein, UniProt Q96S42 238-347, looked up)
Nodal homolog: HHLPDRSQLCRKVKFQVDFNLIGWGSWIIYPKQYNAYRCEGECPNPVGEEFHPTNHAYIQSLLKRYQPHRVPSTCCAPVKTKPLSMLYVDNGRVLLDHHKDMIVEECGCL
notes: recombinant protein of the TGF-β pathway

Assays:
[1] = test system: foreskin cells; test: Foreskin cell growth in DF5SFe-based media; design: species or system human; conditions: individual FGF added at 100 ng/ml for 96 h to DF5SFe minus FGF
Description: To determine growth factors that can help primary foreskin cell growth, individual growth factors contained in FBS were tested. The FGF family of growth factors has several members, one or more of which is commonly used for fibroblast culture. DF5SFe contains 100 ng/ml zebrafish recombinant FGF2. Each FGF family member was tested for its ability to support foreskin cell growth. Foreskin cells were aliquoted into the well of culture plates and incubated for 24 hours in DF5SFe minus FGF. Individual FGF types were added at 100 ng/ml for 96 h.

[2] = test system: H1 cells; test: NANOG mRNA expression; type: cell-based, human; conditions: added to DF5S; NODAL 100 ng/ml or TGF-β 2 ng/ml; compared to DF5S
Excerpt: DF5S was used to expand H1 cells. Cells grown in DF5S were more prone to differentiate than cells grown in TeSR™. However, H1 cells could be grown for several weeks (more than 15 passages), during which the cells maintained human ES cell morphology and high levels of OCT4 expression (FIG. 1E, FIG. 1F). […] DF5S+NODAL also supported pluripotency of the two tested human iPS cell lines, as determined by high expression of the pluripotency marker OCT4. All cells (hES cells and iPS cells) grown in DF5S with either NODAL or TGF-β maintained a normal karyotype after long-term passage.

[3] = test system: iPS cells; test: Long-term pluripotency of lentiviral iPS cell lines; type: cell-based, human; conditions: added to DF5SFe; TGF-β 2 ng/ml or NODAL 100 ng/ml
Excerpt: Human ES cell lines, such as H1 and H9 have a culture history that includes exposure to various complex culture components, such as FBS, feeder cells, and knockout serum replacer. Exposure to these components could conceivably create dependency on these components and, consequently, alter cellular response to simplified media. Culture history might play a lesser role for iPS cells, derived from reprogrammed somatic cells, as derivation conditions are less complex. Therefore, different factors were tested with two original lentiviral iPS cell lines (Yu, et al., Science 318:1917 (2007)) grown in DF5SFe. Cells were transferred from MEF plates directly into DF5SFe medium for one passage and then passaged into various growth factor conditions. […] Pluripotency surface markers SSEA4, SSEA3, Tra-1-60, and Tra-1-81 were also expressed. Cells with normal karyotypes were continuously maintained for more than 20 passages. The cells were capable of forming teratomas 5-7 weeks after injection into severe combined immunodeficient (SCID) mice.

[4] = test system: H1 cells; test: Oct4 expression by flow cytometry as indicator of pluripotency; type: cell-based, human; conditions: DF5SFe supplemented with NODAL at TeSR concentration
Description: As described in Example 3, human pluripotent cells, such as H1, H9, and iPS cells, could be grown and passaged over 15 times in DF5S but were prone to differentiate, such that extra care is needed to sustain pluripotency in DF5S. Because pluripotency could be maintained more easily in TeSR™, growth factors present in TeSR™ were added individually to DF5SFe used to grow H1 cells that were previously cultured in DF5S without differentiating to identify factors supporting long-term pluripotency. Cells were passaged approximately one day after reaching confluency, facilitating cell differentiation, and Oct4 expression, assessed by flow cytometry, was used as indicator of pluripotency.
Human pluripotent cells grown in DF5SFe elongated and lined up along each other, resembling a “spindle” shape just prior to differentiation. […] Thus, recombinant proteins of the TGF-β pathway were tested for their ability to support long-term pluripotency.

Molecule	foreskin cell growth [1]	NANOG mRNA level [2]	long-term pluripotency [3]	Oct4 expression [4]
B1	supported foreskin cell growth most effectively			
B2	supported foreskin cell growth most effectively			
B3		significantly higher levels of NANOG mRNA	supported long-term pluripotency of iPS cells	sustained high Oct4 expression
